The target of this assay is human V158 FcγRIIIa (human) (UniProt P08637). Put plainly: not described in this filing.
human V158 FcγRIIIa (human), sequence (P08637 17-208 F176V limits assumed): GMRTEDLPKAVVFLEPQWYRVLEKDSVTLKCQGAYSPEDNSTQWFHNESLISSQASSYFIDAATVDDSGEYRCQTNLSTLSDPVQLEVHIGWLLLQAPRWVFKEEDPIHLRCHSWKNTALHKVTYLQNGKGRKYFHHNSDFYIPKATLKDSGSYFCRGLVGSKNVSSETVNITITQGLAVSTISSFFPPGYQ

human WT IgG1 (antibody) had an equilibrium dissociation constant (Kd) of 240 nM.

Broadly, the Kd is the equilibrium constant for the complex coming apart. High values mean weaker binding, low ones tighter binding.
